Measured values from publication PMC11440508, “Dually Labeled Neurotensin NTS1R Ligands for Probing Radiochemical and Fluorescence-Based Binding Assays” (Journal of Medicinal Chemistry, 2024).
Values joined by “and” are separate entries in the source; they are usually repeats but may differ in a detail not shown here. Identical values can stand only once. Like-named read-outs stand apart in the source and are kept apart here.

Columns and labels:
NTS1R (Homo sapiens) [1] = biological target: NTS1R (Homo sapiens) (UniProt P30989); assay: radioligand competition binding; details: cited from earlier work
Sequence of NTS1R (Homo sapiens) (P30989 whole entry): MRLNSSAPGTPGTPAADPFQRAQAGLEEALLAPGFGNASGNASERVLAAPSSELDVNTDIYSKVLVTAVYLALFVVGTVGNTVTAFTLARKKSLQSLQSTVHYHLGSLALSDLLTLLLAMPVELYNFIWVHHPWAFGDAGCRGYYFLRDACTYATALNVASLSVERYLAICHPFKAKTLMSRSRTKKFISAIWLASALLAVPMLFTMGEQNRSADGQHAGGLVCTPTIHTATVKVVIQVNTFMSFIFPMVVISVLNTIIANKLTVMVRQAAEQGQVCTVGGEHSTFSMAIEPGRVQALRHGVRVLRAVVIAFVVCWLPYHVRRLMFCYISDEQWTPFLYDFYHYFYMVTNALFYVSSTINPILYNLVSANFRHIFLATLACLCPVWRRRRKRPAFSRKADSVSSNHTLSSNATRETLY

NTS1R (Homo sapiens) [2] = biological target: NTS1R (Homo sapiens) (UniProt P30989); details: cited from earlier work
[3] = biological target: human neurotensin receptor type 2 (hNTS2R) in homogenates of HEK293T cells (human) (UniProt O95665); assay: radioligand binding; saturation binding of [^3H]UR-MK300 at homogenates of HEK293T-hNTS2R cells
Sequence of human neurotensin receptor type 2 (hNTS2R) in homogenates of HEK293T cells (human) (O95665 whole entry): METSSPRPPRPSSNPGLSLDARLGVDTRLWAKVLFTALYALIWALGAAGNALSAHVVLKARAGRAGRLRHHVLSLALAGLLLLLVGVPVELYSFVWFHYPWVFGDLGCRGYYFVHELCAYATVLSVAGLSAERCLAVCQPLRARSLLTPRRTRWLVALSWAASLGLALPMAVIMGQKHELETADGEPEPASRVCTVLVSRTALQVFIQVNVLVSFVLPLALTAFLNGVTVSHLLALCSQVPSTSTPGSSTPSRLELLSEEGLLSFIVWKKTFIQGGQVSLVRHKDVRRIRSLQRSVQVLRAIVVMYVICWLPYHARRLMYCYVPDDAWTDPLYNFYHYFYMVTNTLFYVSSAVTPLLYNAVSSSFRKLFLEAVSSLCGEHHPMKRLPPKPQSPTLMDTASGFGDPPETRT

[4] = biological target: human neurotensin receptor type 1 (hNTS1R), endogenous in HT-29 colon carcinoma cells (human (endogenous in HT-29)) (UniProt P30989); assay: radioligand binding; saturation binding of [^3H]UR-MK300 at intact HT-29 cells, 23 ± 1 °C
Sequence of human neurotensin receptor type 1 (hNTS1R), endogenous in HT-29 colon carcinoma cells (human (endogenous in HT-29)) (P30989 whole entry): as the sequence (P30989 whole entry) above

[5] = biological target: neurotensin NT(8-13) 8-13 (Homo sapiens) (UniProt P30990); assay: radioligand competition binding; details: cited from earlier work
Sequence of neurotensin NT(8-13) 8-13 (Homo sapiens) (P30990 whole entry, looked up, tested part not stated): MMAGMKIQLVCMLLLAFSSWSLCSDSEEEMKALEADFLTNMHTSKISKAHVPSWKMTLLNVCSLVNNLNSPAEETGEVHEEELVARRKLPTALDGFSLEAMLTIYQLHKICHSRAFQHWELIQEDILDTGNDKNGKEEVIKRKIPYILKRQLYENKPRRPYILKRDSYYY

[6] = biological target: neurotensin NT(8-13) 8-13 (Homo sapiens) (UniProt P30990); details: cited from earlier work

Sequence of NTS1R (P30989 whole entry): as the sequence (P30989 whole entry) above
Sequence of NT(8–13) 8-13 (P30990 whole entry, looked up, tested part not stated): as the sequence (P30990 whole entry, looked up, tested part not stated) above

Substance: NT(8–13) 8-13 (from UniProt P30990)
- Ki (NTS1R (Homo sapiens) [1]): 0.14 nM
- Ki (NTS1R (Homo sapiens) [2]): 1 nM and 0.24 nM

Substance: [^3H]UR-MK300 (peptide)
- Kd [3]: 0.75 nM
- Kd [4]: 0.41 nM

Substance: NTS1R (from UniProt P30989)
- Ki [5]: 0.14 nM
- Ki [6]: 1 nM and 0.24 nM and 0.29 nM
